Test: soluble on expression in E. coli; label from the status in PepcDB or PDB records

For “MSLQQALINFYYQFHTKQHYFLCHDILEDAWKAENNYSKQDAVVSLILFATACYHYRRNNLKGAYKSFNKSKEIIQNAKDRDALYLNLNDYQLLIEQQIAKLNAAKPFSSVILPITPVFERIIKANYPDYDYNQETATDPFIVDHHMRRDRSEVIAAKEEAIQLRKHRRNEGHHHHHH”, which “soluble on expression in E. coli” value is on record?
Its value is “soluble”.

Which “soluble on expression in E. coli” value does the source give for “MSLQSFENEIAFITGGASGAGFGQAQVFGRAGAKIVVADVRAEAVERAVAALKAEGIVAHGLVLDITDRQAYAGAADEVEQVFGAAPTLLFNTAGVNSFGPVEDTSYDDFDWIVGVNLGGVINGMVTFVPRMIASGRPGHIVTTSSLGGLMGSALAAPYSAAKAAVINLMESYRQGLDKHGIGVSVLCPANIKSNIAEASRLRPAQFGKSGYVENEESIASLHSIHQHGMDPVELAEHVKAGIVANQLYIIPYPEAKDGLRQHFDAIVDAVLPLEADPEGARARTEALNAWAADRARVFMEKNAAQKAEGHHHHHH” here?
The value was “not soluble”.

Which “soluble on expression in E. coli” value does the source give for “MSLQVQKSFKEQTAYGKLYLVPTPIGNLQDMTFRSIAILKKVDYIAAEDTRNTGLLLKHFDISTRQLSFHEHNAFEKIPDLLKLLKSGNSLAQVSDAGLPSISDPGYDLVRAAIQEDIAVIALPGASAGITALIASGLAPQPHIFYGFLPRKSGQQKSFFEEKKYYPETQIFYESPYRVQETLENILSVYGDRQIVLTRELTKLYEEYQRGNISEILTYIAENPLKGECLLLVSGYDHQEKEQQVSEVELKHLVEALVKEGMKPNQAIKKVAKENDFNRQELYQLYHELQEGHHHHHH” here?
Its value is “soluble”.

Which “soluble on expression in E. coli” value does the source give for “MSLQWKPAGDKIRTFWAEKVDVNNVLPEYPRPIMERSDWQNLNGLWNYAVLPLGQSAPTTFDGKILVPFAIESSLSGVGKTLGMEKELWYQRAFNIPSSWRGKRVLLHFGAVDWKTEVWVNNIKVGEHTGGFTPFTFDVTEALEKSTNTLTVKVWDPTDKGFQPRGKQVSNPRGIWYTPVSGIWQTVWLEPVSEHYIAGIKTTPDIDTNKIKVKVETDSNRQSDRLEVKVFDGKHLVAMGTSINGLPVEIPMPADAKLWSPDSPFLYQMEVSLISAGKLVDQIKSYVAMRKYSIKRDEHGIVRLQLNNKDLFQFGPLDQGWWPDGLYTAPTDEALRYDIEKTKDFGFNMIRKHIKVEPARWYTYCDQIGLIVWQDMPSGDKSPEWQNRKYFEGTELTRSAESEETYRKEWKEVIDCLYSYPCIGTWVPFNEAWGQFKTQEIAEWTKQYDPSRLVNPASGGNHYTCGDMLDLHHYPGPEMFLYDAQRATVLGEYGGIGLVLKDHLWEPNRNWGYIQFNTSAEATAEYLKYAGILKDMISRGFSAAVYTQTTDVEVEVNGLMTYDRKVIKLDESKLKKMNTEICNSLKEGHHHHHH” here?
Its value is “soluble”.

For “MSLQYIVVTGGVISGLGKGTITSSIGHILKDSGFKVSSVKIDPYINYDAGTMNPYQHGEVFVLDDGSEVDLDLGNYERFMDINLSWKNNITTGKVYLEVIEKERHGDYLGKTVQIIPHITDEIKRRIRDVATSSKADFVLIEVGGTVGDIESMPFLEAVRQLKREENNVIFAHVTLVPEIGPTEEQKTKPTQHSVTALREIGIQPDIIFARSKNRLLEETKKRISLFTDVPEGGIISVYDVENVYLLPEVMVNEGFISYLSKLSGKEIKYRDSWKAYTENIKHPKDRVKIAIVGKYVDLHDAYISHKEAFSHVTGNTGIAVDIKWLDSEKVKDDQSMLSDVDAILIPGGFGYRGVEGKIAATRFALENHIPFLGICLGFQVAVIEIARDIIGLQNANSTEFDPATKYPVIDILPEQKGIKDLGGTMRLGSKKVLIKDGTLAKRIYGTDTIYERHRHRYEVNPNYISIIEKAGFVFSGTDEDGIRMEILEKKGDESFIATQYHSEFKSRPLNPSRVHLHLVQQALIYKKNKDIGEAVKLRSSVEGHHHHHH”, which “soluble on expression in E. coli” value is on record?
The value was “soluble”.

Which “soluble on expression in E. coli” value does the source give for “MSLRAVRLHAKWDPRPEFKLGPKDIEGKLTWLGSKVWRYPEVRVEEVPEPRIEKPTEIIIKVKACGICGSDVHMAQTDEEGYILYPGLTGFPVTLGHEFSGVVVEAGPEAINRRTNKRFEIGEPVCAEEMLWCGHCRPCAEGFPNHCENLNELGFNVDGAFAEYVKVDAKYAWSLRELEGVYEGDRLFLAGSLVEPTSVAYNAVIVRGGGIRPGDNVVILGGGPIGLAAVAILKHAGASKVILSEPSEVRRNLAKELGADHVIDPTKENFVEAVLDYTNGLGAKLFLEATGVPQLVWPQIEEVIWRARGINATVAIVARADAKIPLTGEVFQVRRAQIVGSQGHSGHGTFPRVISLMASGMDMTKIISKTVSMEEIPEYIKRLQTDKSLVKVTMLNEGHHHHHH” here?
Its value is “soluble”.

With “MSLREIHVDTLTDAVAKLCIDACHRLPDNLVESFHKAAEKEVSPLGKSVLMKLIDNDRIARENDVSYCHDTGLAIVFVEVGQDVHIVGGSYEDAIQAGVRKGYAEGYMRKSVVSDPLLRVNSNDNTPAVVHTEIVPGDNIEVTVVPKGGGSENWSTMKFLLPGEGAEGVKKFVLSAIEAAGGAACPPLTVGVGIGGSFDKVTAIAKKAILRDIGVHHKEPHVAKLEAELLDAINKTGIGPQGYGGVNTALWVSVETYACHITALPVAVNIQCHAGRRATAVIEGHHHHHH” as the sequence, how does the “soluble on expression in E. coli” value read?
The value was “soluble”.

Which “soluble on expression in E. coli” value does the source give for “MSLREYRYSDAHLHYVDFFQESEGMPALIKAMDAAGVEQSMISGIPVAKKWHEDEPKRPRYYAGDDADAYWYSATDTYVAAALQQLPSDQRKRFHPFLSGFNPVDKNAVSHIERMLDLYPGLWQGIGEVFTRHDDLTALTSGDTPRANNEAMTRIYHLAAERDLPVLLHSNITSKRERNPLYLAEIEEPLRNHPHTRFIWAHAGSSMEIHRHQKQMDFLLPVLTRLLEDYPNLYVDLSWSVLQPYLLDEQGAPRKEWLALVEKYPERFMLGSDVVGRFGSLGEQMHGFKPFLDALPESVAHKVARENFLAVLPKARHEGHHHHHH” here?
The value was “soluble”.

Which “soluble on expression in E. coli” value does the source give for “MSLRGGETLEYDPDVLDENVEIEVGDVVEIKKFEKTEVYVSGYVSRPGVYEISPKENVTLEKLLSMAGGIKGTLEEVDSIVVTRDGSVITLSPNNLDFSVKPGDVVNVKEFVPKKAYVLGYVRNPGLYTFGKNEAFTLRNLIAKAGGFVDEGQVVSVKVAGKEYSEGHHHHHH” here?
Its value is “soluble”.

For “MSLRIAIIITQKTNDLHATVPCFLWRKARYAVDLISAEAKASIMLEMGIHVRCDNTLSKTNFNQYTAAFIPHGNTTRLVEIDKLRKDLEKFVYKPKGPMRWLFSSGNGACVLKEFDLIAPDQLVTVQNEKEMVKLLGKNFIKQPVHVDKNIISCANSCGLTKFSFKVIEELSGIELARKTANLVDHIYKGEGHHHHHH”, which “soluble on expression in E. coli” value is on record?
Its value is “soluble”.

Which “soluble on expression in E. coli” value does the source give for “MSLRINGQAELSGANTFLQAQVQLTGEVEIKLQKPLQLTAAKAATEIHLRIPDFVVWKDLFESTPFAVPAPLHVLTGDIELDVHAQLTDLDSPLQADATAQSRLSSKNQKLFVKATADLETLGKILKPRGLKVHADVVLQDVHLQAPPLRLAVPPQVLPDKRFVMRKDLDIIEEEKPAPTSRIPFELLWSVNIKTEKPVLISSNLLQSPVPVALDMQVQSDRKPQGKVMVQSFPFEFFRKKATVNNVDLIFHPDTVAPELSGKISYSNPEVNIRILLLGNTQRPIVNLESDPQLNQQQILSVLLFDKSLDELNEDEVNSTSNMSRAVSDGALGLFSLMFLSSTPIQSISYDPNSQSYTARMRLDDNTTFSMQSNMTEQRQFTLRRRLGGNWSVRTELSQEDSRADVVQTLLEWMRRFEGHHHHHH” here?
Its value is “not soluble”.

For “MSLRISILQNNNKEVEAVKSEYESKLSKIQNDLDQQTIYANTAQNNYEQELQKHADVSKTISELREQLHTYKGQVKTLNLSRDQLENALKENEKSWSSQKESLLEQLDLSNSRIEDLSSQNKLLYDQIQIYTAADKEVNNSTNGPGLNNILITLRRERDILDTKVTVAERDAKMLRQKISLMDVELQDARTKLDNSRVEKENHSSIIQQHDDIMEKLNQLNLLRESNITLRNELENNNNKKKELQSELDKLKQNVAPIESELTALKYSMQEKEQELKLAKEEVHRWKKRSQDILEKHEQLSSSDYEKLESEIENLKEELENKERQGAEAEEKFNRLRRQAQERLKTSKLSQDSLTEQVNSLRDAKNVLENSLSEANARIEELQNAKVAQGNNQLEAIRKLQEDAEKASRELQAKLEESTTSYESTINGLNEEITTLKEEIEKQRQIQQQLQATSANEQNDLSNIVESMKKSFEEDKIKFIKEKTQEVNEKILEAQERLNQPSNINMEEIKKKWESEHEQEVSQKIREAEEALKKRIRLPTEEKINKIIERKKEELEKEFEEKVEERIKSMEQSGEIDVVLRKQLEAKVQEKQKELENEYNKKLQEELKDVPHSSHISDDERDKLRAEIESRLREEFNNELQAIKKKSFDEGKQQAMMKTTLLERKLAKMESQLSETKQSAESPPKSVNNVQNPLLGLPRKIEENSNSPFNPLLSGEKLLKLNSKSSSGGFNPFTSPSPNKHLQNDNDKRESLANKTDPPTHLEPSFNIPASRGLISSSSTLSTDTNDEELTSNNPAQKDSSNRNVQSEEDTEKKKEGEPVKRGEAIEEQTKSNKRPIDEVGELKNDEDDTTENINESKKIKTEDEEEKETDKVNDENSIEGHHHHHH”, which “soluble on expression in E. coli” value is on record?
Its value is “soluble”.

For “MSLRKMKRFYIASEEEIKTGKTTDIYFLRTRKILETKNIRKKVLADVTTTSLPENWKWGVLVGVEEVAKLLEGIPVNVYAMPEGTIFHPYEPVLQIEGDYADFGIYETALLGMLSQASGIATAALRIKIAAKFKPVYSFGIRHMHPAIAPMIDRAAFIGGCDGVSGVLGAEMMGEKAVGTMPHALIITVGDQVKAWKYFDEVIEKEVPRIALVDTFYDEKIEAVMAAEALGKKLSAVRLDTPSSRRGNFRRIIEEVKWELKIRGYDWVKILISGGLDEEKIKEIVDVADAFGVGSAIASAKPIDFALDIVEVEGKPIAKRGKLSGRKQVYRCENGHYHVVPADKKLERCPVCNAKVEPLLKPIIENGEIVVEFPKARDIREYVLEQAKKFNLEIEGHHHHHH”, which “soluble on expression in E. coli” value is on record?
The value was “not soluble”.

With “MSLRKNLEEEQRLIDAKKLSLVIDLDKTLIDTTEVRNRAEVDAIKKLDPAATEDDFFEFNMNQNLLIRYRPHVRQFLASIAPYFDMQIYTLASPAYAHAILSKIDPEDKLFKNRIFSRTAEDFAMIKEAMRNQTDIVNKKNIKKIFPYSDKLVLVLDDSPEVWFCDNNKLFKGLVQIKRYSYFTRQGPNSPPTVNPDYVNDDILIQMRSVLIDVHDMFYKNYDPEESHVIMTLHQRKAQVFEGKTFYFSGLSEDDTMTFTRLAEEFGALVVDSFTPYTTHIIVGEGGTDDQIQKAMEYRGVYIIYLKWLFECFIQYARIEESLYSIQGIPCPTEGHHHHHH” as the sequence, how does the “soluble on expression in E. coli” value read?
Its value is “soluble”.

Which “soluble on expression in E. coli” value does the source give for “MSLRLKWEGTFADYLEIIKENPMVAQSAHSRVFNMIKDSGIEEIDGRKKYSFFDRELFGLEESLERLVEEYFHPAAKRLDVRKRILLLMGPVSGGKSTLVTMLKKGLEAYTLTDNGAVYAIKGCPMHEDPLHLIPHHLRDDFYREYGIRIEGSLSPLNVMRLEEEYGGRIEDVKVERIFFSEDKRTGIGTFSPSDPKSQDIADLTGSIDFSTIAEYGSESDPRAYRFDGELNKANRGMMEFQEMLKCDEKFLWHLLSLTQEGNFKAGRFALISADELIVAHTNETEYRSFISNKKNEALHSRIIVMPVPYNLKVSEEERIYEKMIAESDVADVHIAPHTLKVAAMFSILTRLKEPKRSDIDLVKKMRLYDGESVEGYNSVDVEDMKKEYNDEGMSGIDPRYVINRISSTIIRKNMESINSLDVLRSLKEGLDQHPSISSEDRERYLNFISAARKEYDDIAKKEVQKAFVYSYEESAKTLMDNYLDNVEAYCNKNKLRDPLTGEEMNPDEKLMRSIEEQIGISENAKKAFREEILIRISAYARKGKRFDYNSHERLREAIQKKLFADLKDVVKITTSTKTPDEQQLKKVNEVVARLIDEHGYNSTSANELLKYVGSLLNREGHHHHHH” here?
Its value is “soluble”.

Reference: the DeepSol protein solubility set
